Measured values published in FireProtDB (doi:10.1021/bi980431i).
Where “and” joins values, the source holds several entries; their conditions need not be identical. Identical values can stand only once.

B1: Lysozyme C, P61626 (parent)
chain: MKALIVLGLVLLSVTVQGKVFERCELARTLKRLGMDGYRGISLANWMCLAKWESGYNTRATNYNAGDRSTDYGIFQINSRYWCNDGKTPGAVNACHLSCSALLQDNIADAVACAKRVVRDPQGIRAWVAWRNRCQNRDVRQYVQGCGV

Variants of: B1
Details: Homo sapiens; pH 2.53; Thermal; DSC; glycine 0.05 M; reversible: yes; structure 1LZ1; whole UniProt chain shown

Variant | Tm | heat capacity change of unfolding | unfolding enthalpy (calorimetric) | unfolding enthalpy (van 't Hoff)
MKALIVLGLVLLSVTVQGKVFERCELARTLKRLGMDGYRGISLANWMCLAKWESGYNTRATNYNAGDRSTDYGIFQINSRYWCNDGKTPGAVNACHLSCSALLQDNIADAVACAKRVVRDPQGIRAWVAWRNRCQNRDVRQFVQGCGV [Y142F] | 60.8 °C | 1.48 kcal/mol/K | 108 kcal/mol | 112 kcal/mol

Same assay, conditions: Homo sapiens; pH 2.68; Thermal; DSC; glycine 0.05 M; reversible: yes; structure 1LZ1; whole UniProt chain shown

Variant | Tm | heat capacity change of unfolding | unfolding enthalpy (calorimetric) | unfolding enthalpy (van 't Hoff)
MKALIVLGLVLLSVTVQGKVFERCELARTLKRLGMDGYRGISLANWMCLAKWESGYNTRATNYNAGDRSTDYGIFQINSRYWCNDGKTPGAVNACHLSCSALLQDNIADAVACAKRVVRDPQGIRAWVAWRNRCQNRDVRQFVQGCGV [Y142F] | 63.4 °C | 1.08 kcal/mol/K | 112 kcal/mol | 116 kcal/mol

Same assay, conditions: Homo sapiens; pH 2.7; 64.9 °C; Thermal; DSC; glycine 0.05 M; reversible: yes; structure 1LZ1; whole UniProt chain shown

Variant | ddG of mutation (higher = less stable) | heat capacity change of unfolding
MKALIVLGLVLLSVTVQGKVFERCELARTLKRLGMDGYRGISLANWMCLAKWESGYNTRATNYNAGDRSTDYGIFQINSRYWCNDGKTPGAVNACHLSCSALLQDNIADAVACAKRVVRDPQGIRAWVAWRNRCQNRDVRQFVQGCGV [Y142F] | 0.36 kcal/mol | 1.46 kcal/mol/K
MKALIVLGLVLLSVTVQGKVFERCELARTLKRLGMDGYRGISLANWMCLAKWESGYNTRATNFNAGDRSTDYGIFQINSRYWCNDGKTPGAVNACHLSCSALLQDNIADAVACAKRVVRDPQGIRAWVAWRNRCQNRDVRQYVQGCGV [Y63F] | -0.07 kcal/mol | 1.1 kcal/mol/K
MKALIVLGLVLLSVTVQGKVFERCELARTLKRLGMDGFRGISLANWMCLAKWESGYNTRATNYNAGDRSTDYGIFQINSRYWCNDGKTPGAVNACHLSCSALLQDNIADAVACAKRVVRDPQGIRAWVAWRNRCQNRDVRQYVQGCGV [Y38F] | 0.5 kcal/mol | 1.35 kcal/mol/K

Same assay, conditions: Homo sapiens; pH 2.7; Thermal; DSC; glycine 0.05 M; reversible: yes; structure 1LZ1; whole UniProt chain shown

Variant | Tm | change of melting temperature, mutant - wild type (higher = more stable) | heat capacity change of unfolding | unfolding enthalpy (calorimetric) | unfolding enthalpy (van 't Hoff)
MKALIVLGLVLLSVTVQGKVFERCELARTLKRLGMDGYRGISLANWMCLAKWESGYNTRATNYNAGDRSTDYGIFQINSRYWCNDGKTPGAVNACHLSCSALLQDNIADAVACAKRVVRDPQGIRAWVAWRNRCQNRDVRQFVQGCGV [Y142F] | 63.8 °C and 64 °C | -1.1 °C | 1.46 kcal/mol/K and 1.53 kcal/mol/K | 114 kcal/mol and 113 kcal/mol | 119 kcal/mol and 118 kcal/mol
MKALIVLGLVLLSVTVQGKVFERCELARTLKRLGMDGYRGISLANWMCLAKWESGYNTRATNFNAGDRSTDYGIFQINSRYWCNDGKTPGAVNACHLSCSALLQDNIADAVACAKRVVRDPQGIRAWVAWRNRCQNRDVRQYVQGCGV [Y63F] | 65.1 °C | 0.2 °C | 1.1 kcal/mol/K | 112 kcal/mol | 118 kcal/mol
MKALIVLGLVLLSVTVQGKVFERCELARTLKRLGMDGFRGISLANWMCLAKWESGYNTRATNYNAGDRSTDYGIFQINSRYWCNDGKTPGAVNACHLSCSALLQDNIADAVACAKRVVRDPQGIRAWVAWRNRCQNRDVRQYVQGCGV [Y38F] | 63.4 °C | -1.5 °C | 1.35 kcal/mol/K | 112 kcal/mol | 120 kcal/mol

Same assay, conditions: Homo sapiens; pH 3.06; Thermal; DSC; glycine 0.05 M; reversible: yes; structure 1LZ1; whole UniProt chain shown

Variant | Tm | heat capacity change of unfolding | unfolding enthalpy (calorimetric) | unfolding enthalpy (van 't Hoff)
MKALIVLGLVLLSVTVQGKVFERCELARTLKRLGMDGYRGISLANWMCLAKWESGYNTRATNYNAGDRSTDYGIFQINSRYWCNDGKTPGAVNACHLSCSALLQDNIADAVACAKRVVRDPQGIRAWVAWRNRCQNRDVRQFVQGCGV [Y142F] | 69.7 °C | 1.82 kcal/mol/K | 121 kcal/mol | 125 kcal/mol

Same assay, conditions: Homo sapiens; pH 2.48; Thermal; DSC; glycine 0.05 M; reversible: yes; structure 1LZ1; whole UniProt chain shown

Variant | Tm | heat capacity change of unfolding | unfolding enthalpy (calorimetric) | unfolding enthalpy (van 't Hoff)
MKALIVLGLVLLSVTVQGKVFERCELARTLKRLGMDGYRGISLANWMCLAKWESGYNTRATNFNAGDRSTDYGIFQINSRYWCNDGKTPGAVNACHLSCSALLQDNIADAVACAKRVVRDPQGIRAWVAWRNRCQNRDVRQYVQGCGV [Y63F] | 61.4 °C | 0.89 kcal/mol/K | 109 kcal/mol | 115 kcal/mol

Same assay, conditions: Homo sapiens; pH 2.67; Thermal; DSC; glycine 0.05 M; reversible: yes; structure 1LZ1; whole UniProt chain shown

Variant | Tm | heat capacity change of unfolding | unfolding enthalpy (calorimetric) | unfolding enthalpy (van 't Hoff)
MKALIVLGLVLLSVTVQGKVFERCELARTLKRLGMDGYRGISLANWMCLAKWESGYNTRATNFNAGDRSTDYGIFQINSRYWCNDGKTPGAVNACHLSCSALLQDNIADAVACAKRVVRDPQGIRAWVAWRNRCQNRDVRQYVQGCGV [Y63F] | 64.6 °C | 1.34 kcal/mol/K | 112 kcal/mol | 117 kcal/mol

Same assay, conditions: Homo sapiens; pH 2.71; Thermal; DSC; glycine 0.05 M; reversible: yes; structure 1LZ1; whole UniProt chain shown

Variant | Tm | heat capacity change of unfolding | unfolding enthalpy (calorimetric) | unfolding enthalpy (van 't Hoff)
MKALIVLGLVLLSVTVQGKVFERCELARTLKRLGMDGYRGISLANWMCLAKWESGYNTRATNFNAGDRSTDYGIFQINSRYWCNDGKTPGAVNACHLSCSALLQDNIADAVACAKRVVRDPQGIRAWVAWRNRCQNRDVRQYVQGCGV [Y63F] | 64.9 °C | 1.15 kcal/mol/K | 111 kcal/mol | 117 kcal/mol

Same assay, conditions: Homo sapiens; pH 2.89; Thermal; DSC; glycine 0.05 M; reversible: yes; structure 1LZ1; whole UniProt chain shown

Variant | Tm | heat capacity change of unfolding | unfolding enthalpy (calorimetric) | unfolding enthalpy (van 't Hoff)
MKALIVLGLVLLSVTVQGKVFERCELARTLKRLGMDGYRGISLANWMCLAKWESGYNTRATNFNAGDRSTDYGIFQINSRYWCNDGKTPGAVNACHLSCSALLQDNIADAVACAKRVVRDPQGIRAWVAWRNRCQNRDVRQYVQGCGV [Y63F] | 68.7 °C | 0.65 kcal/mol/K | 116 kcal/mol | 122 kcal/mol
MKALIVLGLVLLSVTVQGKVFERCELARTLKRLGMDGFRGISLANWMCLAKWESGYNTRATNYNAGDRSTDYGIFQINSRYWCNDGKTPGAVNACHLSCSALLQDNIADAVACAKRVVRDPQGIRAWVAWRNRCQNRDVRQYVQGCGV [Y38F] | 66.8 °C | 1.7 kcal/mol/K | 115 kcal/mol | 123 kcal/mol

Same assay, conditions: Homo sapiens; pH 3.13; Thermal; DSC; glycine 0.05 M; reversible: yes; structure 1LZ1; whole UniProt chain shown

Variant | Tm | heat capacity change of unfolding | unfolding enthalpy (calorimetric) | unfolding enthalpy (van 't Hoff)
MKALIVLGLVLLSVTVQGKVFERCELARTLKRLGMDGYRGISLANWMCLAKWESGYNTRATNFNAGDRSTDYGIFQINSRYWCNDGKTPGAVNACHLSCSALLQDNIADAVACAKRVVRDPQGIRAWVAWRNRCQNRDVRQYVQGCGV [Y63F] | 72.5 °C | 1.63 kcal/mol/K | 121 kcal/mol | 127 kcal/mol

Same assay, conditions: Homo sapiens; pH 2.58; Thermal; DSC; glycine 0.05 M; reversible: yes; structure 1LZ1; whole UniProt chain shown

Variant | Tm | heat capacity change of unfolding | unfolding enthalpy (calorimetric) | unfolding enthalpy (van 't Hoff)
MKALIVLGLVLLSVTVQGKVFERCELARTLKRLGMDGFRGISLANWMCLAKWESGYNTRATNYNAGDRSTDYGIFQINSRYWCNDGKTPGAVNACHLSCSALLQDNIADAVACAKRVVRDPQGIRAWVAWRNRCQNRDVRQYVQGCGV [Y38F] | 61.1 °C | 1.67 kcal/mol/K | 106 kcal/mol | 114 kcal/mol

Same assay, conditions: Homo sapiens; pH 3.18; Thermal; DSC; glycine 0.05 M; reversible: yes; structure 1LZ1; whole UniProt chain shown

Variant | Tm | heat capacity change of unfolding | unfolding enthalpy (calorimetric) | unfolding enthalpy (van 't Hoff)
MKALIVLGLVLLSVTVQGKVFERCELARTLKRLGMDGFRGISLANWMCLAKWESGYNTRATNYNAGDRSTDYGIFQINSRYWCNDGKTPGAVNACHLSCSALLQDNIADAVACAKRVVRDPQGIRAWVAWRNRCQNRDVRQYVQGCGV [Y38F] | 72 °C | 0.6 kcal/mol/K | 122 kcal/mol | 129 kcal/mol
